Measurements reported in publication PMC5908791.

Legend:
[1] = target: human SOCS1 (residues 53-211) in complex with Elongins B and C (human) (UniProt O15524); assay: ITC
[2] = target: human JAK1 kinase domain (human) (UniProt P23458)
Chain of UniProt P23458 (P23458 869-1153): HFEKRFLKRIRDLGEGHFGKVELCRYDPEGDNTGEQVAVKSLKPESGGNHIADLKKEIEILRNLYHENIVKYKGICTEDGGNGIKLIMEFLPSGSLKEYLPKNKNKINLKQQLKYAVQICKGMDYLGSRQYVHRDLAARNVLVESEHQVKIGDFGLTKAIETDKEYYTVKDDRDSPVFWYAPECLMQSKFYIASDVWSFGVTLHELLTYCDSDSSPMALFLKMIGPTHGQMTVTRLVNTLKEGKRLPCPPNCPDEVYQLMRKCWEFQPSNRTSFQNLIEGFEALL

Substance	Kd [1] [µM]	IC50 of inhibition of the JAK1 kinase domain phosphorylating a STAT5b-derived peptide (in vitro kinase assay) [2] [µM]
IFNαR2 (pY269)	2.65	
IL-2Rβ (pY338)	0.964	
IL-2Rβ (pY355)	0.614	
IL-2Rβ (pY392)	1.03	
IL-2Rβ (pY510)	0.209	
human SOCS1 (residues 53-211) in complex with Elongins B and C (from UniProt O15524 53-211; Q15370 1-118; Q15369 17-112)		0.03
